These results are taken from patent US20120114639A1, “COMPOSITIONS AND METHODS FOR INHIBITING VIRAL AND/OR BACTERIAL INFECTIONS” (priority 2010, published 2012).

This experiment deals with HPV16. The experiment is described as follows: HPV16 PsV infection of HaCaT cells, luciferase assay. The experiment is classed as cell-based, human papillomavirus. The method, then: FIG. 2. […] (A, B) Immunoblot for syndecan-1 (polyclonal syndecan-1 Ab) after 24 hours at 37° C. in CM (A) or post starvation in SFM and after six hours at 37° C. in Tyrode's Buffer (B); immunoblot for HPV16 L1 released into CM post virus binding for indicated times (C) or 24 hours (E). […] Cells were untreated (U) or pre-treated with BM or MM for one hour, then exposed to HPV16 PsV in the presence of inhibitors in CM. Infection was assayed by quantifying luciferase levels at 24 hours p.i. (F). Data are represented as mean±SEM of three experiments. (G-H) IC50 of HPV16 infectivity inhibition by MMIP inhibitors batimastat and mariniastat. […] HPV16 infection was measured with luciferase assay. […]
FIG. 7. […] Cells were exposed to HPV16 PsV at 100 vge/cell for one hour at 4° C., then washed extensively and shifted to 37° C. in the presence of the indicated inhibitor in CM for 24 hours at which time they were analyzed for luciferase expression. […] (B-C) EGFR knockdown was accomplished using siRNA to EGFR and the percent of EGFR protein remaining in EGFR-siRNA transfected HaCaT cells was determined by immunoblot and compared by densitometry to EGFR levels in cells transfected with a negative control siRNA at 48 hours post transfection. Four separate transfections were analyzed (B) and HPV16 PsV infection levels were measured at 24 hours post infection (48 hours post transfection) in each (C). […]

B1: TIMP3: blocks MMP activity (protein, UniProt P35625 24-211, looked up)
Metalloproteinase inhibitor 3: CTCSPSHPQDAFCNSDIVIRAKVVGKKLVKEGPFGTLVYTIKQMKMYRGFTKMPHVQYIHTEASESLCGLKLEVNKYQYLLTGRVYDGKMYTGLCNFVERWDQLTLSQRKGLNYRYHLGCNCKIKSCYYLPCFVTSKNECLWTDMLSNFGYPGYQSKHYACIRQKGGYCSWYRGWAPPDKSIINATDP
In the case of B1, the “HPV16 infection of HaCaT cells (in words)” value (CM, luciferase 24 hours p.i.) was “can prevent HPV16 infection”.

B2: KGF: keratinocyte growth factor, GFR ligand (protein, UniProt P21781 32-194, looked up)
Fibroblast growth factor 7: CNDMTPEQMATNVNCSSPERHTRSYDYMEGGDIRVRRLFCRTQWYLRIDKRGKVKGTQEMKNNYNIMEIRTVAVGIVAIKGVESEFYLAMNKEGKLYAKKECNEDCNFKELILENHYNTYASAKWTHNGGEMFVALNQKGIPVRGKKTKKEQKTAHFLPMAIT
Regarding B2, the “restoration of HPV16 infectivity in SFM by added factor” value (serum-starved HaCaT, HPV16 bound in SFM, 24 hours in SFM plus factor, compared to CM) was “partially restore infection levels”.
